The values below come from patent US20250066422A1.

Some targets named below: HLA-DR7 (human); HLA-DR2 (human); HLA-DR5 (human); HLA-DR4 (human); HLA-DR1 (human).
Common to all, as to assay: ProImmune REVEAL MHC-peptide binding assay

For the molecule TLGEFLKLDRERAKN (peptide, from a related filing) [BIR-002], the Relative Binding Score (% of positive control) was determined as 0.27 with HLA-DR7 (human); 0.05 with HLA-DR2 (human); 104 in the test with HLA-DR5 (human); 6.12 with HLA-DR4 (human); 40.1 in the test with HLA-DR1 (human).

TFSYVDPVITSISPKYG (peptide, from a related filing) [MET-005]: the Relative Binding Score (% of positive control) amounted to 3.69 in the test with HLA-DR7 (human); 0.28 with HLA-DR2 (human); 0.12 with HLA-DR5 (human); 5.89 with HLA-DR4 (human); 0.87 with HLA-DR1 (human).
